T1: human GIP receptor (human, UniProt P48546 22-466)
T1 sequence (looked up): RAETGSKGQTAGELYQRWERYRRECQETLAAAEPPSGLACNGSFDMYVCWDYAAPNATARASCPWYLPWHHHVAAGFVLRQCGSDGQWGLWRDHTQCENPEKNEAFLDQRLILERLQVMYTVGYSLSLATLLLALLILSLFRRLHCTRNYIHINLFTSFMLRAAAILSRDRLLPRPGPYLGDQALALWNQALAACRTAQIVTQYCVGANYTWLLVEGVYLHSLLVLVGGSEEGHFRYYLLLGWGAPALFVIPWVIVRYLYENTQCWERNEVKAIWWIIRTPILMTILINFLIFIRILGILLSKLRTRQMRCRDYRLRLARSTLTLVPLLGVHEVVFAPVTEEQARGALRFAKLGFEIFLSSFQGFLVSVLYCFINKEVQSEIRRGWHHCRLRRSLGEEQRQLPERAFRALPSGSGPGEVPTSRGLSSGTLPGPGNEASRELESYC

B1: Example 333 (peptide)
peptide: Y[Aib]EGT[αMePhe(2-F)]TSD[Nle]SI[αMeL]LD[Orn]IAQ[Aib]K([AEEA-AEEA-γGlu-Decanoyl(10-(4-HOOC-PhO))])FI[dE][αMeY]LIK([AEEA-AEEA-γGlu-Decanoyl(10-(4-HOOC-PhO))])GGPSSGAPPPS-NH2
modifications: N-terminus assumed
SMILES: CCCC[C@H](NC(=O)[C@H](CC(=O)O)NC(=O)[C@H](CO)NC(=O)[C@@H](NC(=O)[C@](C)(Cc1ccccc1F)NC(=O)[C@@H](NC(=O)CNC(=O)[C@H](CCC(=O)O)NC(=O)C(C)(C)NC(=O)[C@@H](N)Cc1ccc(O)cc1)[C@@H](C)O)[C@@H](C)O)C(=O)N[C@@H](CO)C(=O)N[C@H](C(=O)N[C@@](C)(CC(C)C)C(=O)N[C@@H](CC(C)C)C(=O)N[C@@H](CC(=O)O)C(=O)N[C@@H](CCCN)C(=O)N[C@H](C(=O)N[C@@H](C)C(=O)N[C@@H](CCC(N)=O)C(=O)NC(C)(C)C(=O)N[C@@H](CCCCNC(=O)COCCOCCNC(=O)COCCOCCNC(=O)CC[C@H](NC(=O)CCCCCCCCCOc1ccc(C(=O)O)cc1)C(=O)O)C(=O)N[C@@H](Cc1ccccc1)C(=O)N[C@H](C(=O)N[C@H](CCC(=O)O)C(=O)N[C@@](C)(Cc1ccc(O)cc1)C(=O)N[C@@H](CC(C)C)C(=O)N[C@H](C(=O)N[C@@H](CCCCNC(=O)COCCOCCNC(=O)COCCOCCNC(=O)CC[C@H](NC(=O)CCCCCCCCCOc1ccc(C(=O)O)cc1)C(=O)O)C(=O)NCC(=O)NCC(=O)N1CCC[C@H]1C(=O)N[C@@H](CO)C(=O)N[C@@H](CO)C(=O)NCC(=O)N[C@@H](C)C(=O)N1CCC[C@H]1C(=O)N1CCC[C@H]1C(=O)N1CCC[C@H]1C(=O)N[C@@H](CO)C(N)=O)[C@@H](C)CC)[C@@H](C)CC)[C@@H](C)CC)[C@@H](C)CC
B2: Example 303 (peptide)
peptide: YXEGTXTSDYXIXLDXIAQXEFIKXLIKGGPSSGAPPPS
modifications: Y-Aib-EGT-αMeF(2F)-TSDY-αMeS-I-αMeL-LD-Orn-IAQ-Aib-EFIK((2-[2-(2-Amino-ethoxy)-ethoxy]-acetyl)2-(γ-Glu)-CO-(CH2)12-CO2H)-αMeY-LIK((2-[2-(2-Amino-ethoxy)-ethoxy]-acetyl)2-(γ-Glu)-CO-(CH2)12-CO2H)GGPSSGAPPPS-NH2
B3: Example 346 (peptide)
peptide: B2 peptide
modifications: Y-Aib-EGT-αMeF(2F)-TSDY-Aib-I-αMeL-LD-Orn-IAQ-Aib-EFIK(2-[2-(2-Amino-ethoxy)-ethoxy]-acetyl)3-(γ-Glu)-(10-(4-carboxyphenoxy)decanoyl)-αMeY-LIK((2-[2-(2-Amino-ethoxy)-ethoxy]-acetyl)3-(γ-Glu)-(10-(4-carboxyphenoxy)decanoyl)GGPSSGAPPPS-NH2)
B4: Example 316 (peptide)
peptide: B2 peptide with E21X
modifications: Y-Aib-EGT-αMeF(2F)-TSDY-Aib-I-αMeL-LD-Orn-IAQ-Aib-Orn-FIK((2-[2-(2-Amino-ethoxy)-ethoxy]-acetyl)2-(γ-Glu)-CO-(CH2)12-CO2H)-αMeY-LIK((2-[2-(2-Amino-ethoxy)-ethoxy]-acetyl)2-(γ-Glu)-CO-(CH2)12-CO2H)GGPSSGAPPPS-NH2
B5: Example 315 (peptide)
peptide: B2 peptide with Y10X, E21X
modifications: Y-Aib-EGT-αMeF(2F)-TSD-4Pal-Aib-I-αMeL-LD-Orn-IAQ-Aib-Orn-FIK((2-[2-(2-Amino-ethoxy)-ethoxy]-acetyl)2-(γ-Glu)-CO-(CH2)12-CO2H)-αMeY-LIK((2-[2-(2-Amino-ethoxy)-ethoxy]-acetyl)2-(γ-Glu)-CO-(CH2)12-CO2H)GGPSSGAPPPS-NH2
B6: Example 343 (peptide)
peptide: B2 peptide
modifications: Y-Aib-EGT-αMeF(2F)-TSDY-Aib-I-αMeL-LD-Orn-IAQ-Aib-EFIK((2-[2-(2-Amino-ethoxy)-ethoxy]-acetyl)3-(γ-Glu)-CO-(CH2)12-CO2H)-αMeY-LIK((2-[2-(2-Amino-ethoxy)-ethoxy]-acetyl)3-(γ-Glu)-CO-(CH2)12-CO2H)GGPSSGAPPPS-NH2
B7: Example 312 (peptide)
peptide: B2 peptide
modifications: Y-Aib-EGT-αMeF(2F)-TSDY-Aib-I-αMeL-LD-Orn-IAQ-Aib-EFIK(2-[2-(2-Amino-ethoxy)-ethoxy]-acetyl)2-(γ-Glu)-(11-(4-carboxyphenoxy)undecanoyl)-αMeY-LIK((2-[2-(2-Amino-ethoxy)-ethoxy]-acetyl)2-(γ-Glu)-(11-(4-carboxyphenoxy)undecanoyl)GGPSSGAPPPS-NH2)
B8: Example 306 (peptide)
peptide: B2 peptide with Y10X
modifications: Y-Aib-EGT-αMeF(2F)-TSD-4Pal-αMeS-I-αMeL-LD-Orn-IAQ-Aib-EFIK((2-[2-(2-Amino-ethoxy)-ethoxy]-acetyl)2-(γ-Glu)-(10-(4-carboxyphenoxy)decanoyl))-αMeY-LIK((2-[2-(2-Amino-ethoxy)-ethoxy]-acetyl)2-(γ-Glu)-(10-(4-carboxyphenoxy)decanoyl))GGPSSGAPPPS-NH2
B9: Example 307 (peptide)
peptide: B2 peptide
modifications: Y-Aib-EGT-αMeF(2F)-TSDY-αMeS-I-αMeL-LD-Orn-IAQ-Aib-EFIK((2-[2-(2-Amino-ethoxy)-ethoxy]-acetyl)2-(γ-Glu)-(10-(4-carboxyphenoxy)decanoyl))-αMeY-LIK((2-[2-(2-Amino-ethoxy)-ethoxy]-acetyl)2-(γ-Glu)-(10-(4-carboxyphenoxy)decanoyl))GGPSSGAPPPS-NH2
B10: Example 342 (peptide)
peptide: B2 peptide with Y10X
modifications: Y-Aib-EGT-αMeF(2F)-TSD-4Pal-Aib-I-αMeL-LD-Orn-IAQ-Aib-EFIK((2-[2-(2-Amino-ethoxy)-ethoxy]-acetyl)3-(γ-Glu)-CO-(CH2)12-CO2H)-αMeY-LIK((2-[2-(2-Amino-ethoxy)-ethoxy]-acetyl)3-(γ-Glu)-CO-(CH2)12-CO2H)GGPSSGAPPPS-NH2
B11: Example 311 (peptide)
peptide: B2 peptide with Y10X
modifications: Y-Aib-EGT-αMeF(2F)-TSD-4Pal-Aib-I-αMeL-LD-Orn-IAQ-Aib-EFIK(2-[2-(2-Amino-ethoxy)-ethoxy]-acetyl)2-(γ-Glu)-(11-(4-carboxyphenoxy)undecanoyl)-αMeY-LIK((2-[2-(2-Amino-ethoxy)-ethoxy]-acetyl)2-(γ-Glu)-(11-(4-carboxyphenoxy)undecanoyl)GGPSSGAPPPS-NH2)

Residue numbers refer to the chain shown, from its start. *1 amine or outer side, *2 acyl side, *3 side chain or, on linkers, in order; H or OH if unused. Where no end group is shown, it is not given here. Side-chain parts run from the residue outwards. [ ]: non-standard residue; d: D form. The star is where a group is joined. Decanoyl(10-(4-HOOC-PhO)) = O=C(O)c1ccc(OCCCCCCCCCC(=O)*)cc1; αMePhe(2-F) = C[C@](N)(Cc1ccccc1F)C(=O)O; γGlu = O=C(O)[C@H](CCC(=O)[*:2])N[*:1]; αMeY = C[C@](N)(Cc1ccc(O)cc1)C(=O)O; αMeL = CC(C)C[C@](C)(N)C(=O)O; Nle = CCCC[C@H](N)C(=O)O; Orn = NCCC[C@H](N)C(=O)O; AEEA = NCCOCCOCC(=O)O; Aib = CC(C)(N)C(=O)O Bounds are passed on as bounds.

The first test addresses human GLP-1 receptor (human, UniProt P43220 24-463). The test is described as follows: cell-based or functional assay.
Turning to Y[Aib]EGT[αMePhe(2-F)]TSD[Nle]SI[αMeL]LD[Orn]IAQ[Aib]EFIK([AEEA-AEEA-γGlu-Decanoyl(10-(4-HOOC-PhO))])[αMeY]LIK([AEEA-AEEA-γGlu-Decanoyl(10-(4-HOOC-PhO))])GGPSSGAPPPS-NH2 [Example 314], the “cAMP EC50 (1.0% HSA)” value was found to be 38.6 nM.
In the case of B1, the “cAMP EC50 (1.0% HSA)” value came out at 70.4 nM.
B2: the “cAMP EC50 (1.0% HSA)” value is 50.4 nM.
With B3, the “cAMP EC50 (1.0% HSA)” value is 19 nM and the “cAMP Emax (1.0% HSA)” value was 97.7%.
Taken in the same sequence, the figures for B4 were 19.2 nM and 113%.
On to B5, for which the “cAMP EC50 (1.0% HSA)” value was 5.38 nM and the “cAMP Emax (1.0% HSA)” value came out at 93.5%.
For B6, the “cAMP EC50 (1.0% HSA)” value is 20.2 nM and the “cAMP Emax (1.0% HSA)” value turned out to be 98.2%.
For the molecule B7, the “cAMP EC50 (1.0% HSA)” value is 50.8 nM.
The same measure, in the same setting: with B8 the figure was 18.2 nM; with B9, 33 nM.
B10: the “cAMP EC50 (1.0% HSA)” value was 13.6 nM.
On the same count and under the same terms, with B11 the figure was 33.8 nM.

The target in the next test is T1, human GIP receptor. Description: cell-based or functional assay.
With Y[Aib]EGT[αMePhe(2-F)]TSD[Nle]SI[αMeL]LD[Orn]IAQ[Aib]EFIK([AEEA-AEEA-γGlu-Decanoyl(10-(4-HOOC-PhO))])[αMeY]LIK([AEEA-AEEA-γGlu-Decanoyl(10-(4-HOOC-PhO))])GGPSSGAPPPS-NH2 [Example 314], the “cAMP EC50 (1.0% HSA)” value amounted to 3.51 nM.
In the case of B1, the “cAMP EC50 (1.0% HSA)” value came out at 6.74 nM.
Regarding B2, the “cAMP EC50 (1.0% HSA)” value was determined as 2 nM and the “cAMP Emax (1.0% HSA)” value is 89.8%.
The matching figures for B3: 1.83 nM and 83.9%.
Take B4: the “cAMP EC50 (1.0% HSA)” value turned out to be 1.11 nM.
For B5, the “cAMP EC50 (1.0% HSA)” value amounted to 0.393 nM and the “cAMP Emax (1.0% HSA)” value came to 89.2%.
The matching figures for B6: 2.38 nM and 90.2%.
The matching figures for B7: 4.48 nM and 89.5%.
For the molecule B8, the “cAMP EC50 (1.0% HSA)” value was determined as 1.12 nM.
Turning to B9, the “cAMP EC50 (1.0% HSA)” value turned out to be 1.66 nM and the “cAMP Emax (1.0% HSA)” value was 81.8%.
For the molecule B10, the “cAMP EC50 (1.0% HSA)” value turned out to be 1.04 nM.
For B11, the “cAMP EC50 (1.0% HSA)” value was 2.16 nM and the “cAMP Emax (1.0% HSA)” value turned out to be 98.3%.

For a further test, the target named is human glucagon receptor (human, UniProt P47871 26-477). The test is described as follows: cell-based or functional assay.
As to Y[Aib]EGT[αMePhe(2-F)]TSD[Nle]SI[αMeL]LD[Orn]IAQ[Aib]EFIK([AEEA-AEEA-γGlu-Decanoyl(10-(4-HOOC-PhO))])[αMeY]LIK([AEEA-AEEA-γGlu-Decanoyl(10-(4-HOOC-PhO))])GGPSSGAPPPS-NH2 [Example 314], the “cAMP EC50 (1.0% HSA)” value was above 9950 nM.
For B1, the “cAMP EC50 (1.0% HSA)” value is above 9950 nM.
Take B2: the “cAMP EC50 (1.0% HSA)” value was above 9950 nM.
Same read-out and setting: with B3 the figure was above 9950 nM.
As to B4, the “cAMP EC50 (1.0% HSA)” value was above 9950 nM.
Same read-out and setting: then B5, with above 9950 nM; and B6, with above 9950 nM; and B7, with above 9950 nM.
The same measure, in the same setting: with B8 the figure was above 9950 nM.
With B9, the “cAMP EC50 (1.0% HSA)” value was above 9950 nM.
Still for that read-out and setting: then B10, with above 9950 nM.
Still for that read-out and setting: with B11 the figure was above 9950 nM.

Source of the values: patent US20230265151A1, “GIP/GLP1 CO-AGONIST COMPOUNDS” (priority 2020, published 2023).
